# According to patent US20260015417A1 (MEDIMABBIO, published 2026):
# T1: recombinant human TIGIT protein (Acrobiosystems) (human, UniProt Q495A1 22-141)
# T1 construct: Bought recombinant protein; NP_776160.2; UniProt Q495A1-1
# T1 sequence: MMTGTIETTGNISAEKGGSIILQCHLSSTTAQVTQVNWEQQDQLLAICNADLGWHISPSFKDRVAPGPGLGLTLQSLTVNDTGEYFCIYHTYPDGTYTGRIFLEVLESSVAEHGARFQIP
# Target: T1, recombinant human TIGIT protein …
# Assay: ELISA, plate coated with recombinant human TIGIT at 1 ug/ml, serial 1:3 dilutions from 61.097 nM, detection with anti-mouse/human IgG-HRP, OD 450 nm
# Description: An ELISA plate was coated with recombinant human TIGIT protein (Acrobiosystems, China) at a concentration of 1 μg/ml dissolved in PBS (Phosphate-Buffered Saline) and incubated overnight at 4° C. The plate was blocked with blocking buffer (3% (v/v) skim milk in PBS) for 1 hour, and serially diluted anti-TIGIT monoclonal antibody (7A6) and the fusion protein ([7A6]-[TL-2]-[IL-15]; denoted as ‘7A615TL-2’) (starting concentration: 61.097 nM; serial 1:3 dilutions) were added to the coated plate. After incubation, anti-mouse/human IgG-HRP antibody (Abcam: 1:10000 dilution) was added to each well. The plate was developed with TMB solution and stopped with 1N HCl. The OD value was read at 450 nm using the GloMax® Explorer Fully Loaded.
binder,measurement,value
"anti-TIGIT monoclonal antibody 7A6 (7A6_VH3/Vk5) (antibody, human IgG1, kappa, V domains shown, also called parent antibody; TIGIT mAb) VH: QVQLQESGPGLVKPSQTLSLTCTVTGYSITSDYAWNWIRQPPGKGLEWMGYISYSGSARYNPSLKSRVTISRDTSKNQFSLKLSSVTAEDTATYYCARKGYPAYFAYWGQGTLVTVSS VL: DIQMTQSPSSLSASVGDRVSITCKASQDVSTAVAWYQQKPGQAPRLLIYSASYRYTGVPDRFSGSGSGTDFTLTISSLQPEDFATYYCQHHYSTPYTFGQGTKLEIKR",EC50 (read off the curve),~2 nM
